{"source": "paper PMC3808539", "about": "“CtpB Assembles a Gated Protease Tunnel Regulating Cell-Cell Signaling during Spore Formation in Bacillus subtilis” (Cell, 2013)", "molecules": {"B1": {"name": "WT: wild-type CtpB, PDZ-protease of B. subtilis (protein, UniProt O35002 24-480, looked up)", "Carboxy-terminal processing …": "GINLLEMDKPQTAAVPATAQADSERDKAMDKIEKAYELISNEYVEKVDREKLLEGAIQGMLSTLNDPYSVYMDKQTAKQFSDSLDSSFEGIGAEVGMEDGKIIIVSPFKKSPAEKAGLKPNDEIISINGESMAGKDLNHAVLKIRGKKGSSVSMKIQRPGTKKQLSFRIKRAEIPLETVFASEKKVQGHSVGYIAISTFSEHTAEDFAKALRELEKKEIEGLVIDVRGNPGGYLQSVEEILKHFVTKDQPYIQIAERNGDKKRYFSTLTHKKAYPVNVITDKGSASASEILAGALKEAGHYDVVGDTSFGKGTVQQAVPMGDGSNIKLTLYKWLTPNGNWIHKKGIEPTIAIKQPDYFSAGPLQLKEPLKVDMNNEDVKHAQVLLKGLSFDPGREDGYFSKDMKKAVMAFQDQNKLNKTGVIDTRTAETLNQQIEKKKSDEKNDLQLQTALKSLFVN"}, "B2": {"name": "CtpBS309A: inactive CtpB S309A mutant (protein, UniProt O35002 24-480, looked up, variant S309A)", "Carboxy-terminal processing …": "B1 Carboxy-terminal processing … with S286A"}}, "design": "species or system Bacillus subtilis", "source_text": "Figure S1 CtpB Autocleavage and Dimerization, Related to Figures 1 and 2 (A) SDS-PAGE analysis monitoring auto-degradation of CtpB. […] (C) Comparison of the gelfiltration profiles of wild-type CtpB and a Δ86 construct lacking the N-terminal dimerization domain. An SDS-PAGE analysis is shown below the chromatograms. (D) Cleavage assays comparing the activity of wild-type and Δ86 CtpB against the 4B predigested 4FAproc substrate.", "note": "Positions count from the first letter of the chain named. Numbers in names are those of the source."}
{"molecule": "B1", "values": [{"measurement": "auto-degradation", "value": "auto-degraded at position 36 and 42"}]}
{"molecule": "B2", "values": [{"measurement": "auto-degradation", "value": "no further degradation"}]}
